According to PMC9893218:

Target: trastuzumab
Test: SEC + native MS

- stoichiometry N: 2
Substance: trastuzumab (antibody)
